This note sets out measurements from article PMC3134637.

Like-named read-outs stand apart in the source and are kept apart here.

What all share (test): HiTS-FLIP
Data set [1] addresses T1, 6xHis-mOrange-Gcn4p (Saccharomyces cerevisiae, UniProt P03069 1-281).
Data set [2] deals with T1, 6xHis-mOrange-Gcn4p. This is another data set of the same source.
Data set [3] has as its target T1, 6xHis-mOrange-Gcn4p. This is another data set of the same source.
Data set [4] deals with T1, 6xHis-mOrange-Gcn4p. This is another data set of the same source.
Data set [5] deals with T1, 6xHis-mOrange-Gcn4p. This is another data set of the same source.
Data set [6] concerns the target T1, 6xHis-mOrange-Gcn4p. The source holds these as a separate data set.

T1 sequence (P03069 whole entry): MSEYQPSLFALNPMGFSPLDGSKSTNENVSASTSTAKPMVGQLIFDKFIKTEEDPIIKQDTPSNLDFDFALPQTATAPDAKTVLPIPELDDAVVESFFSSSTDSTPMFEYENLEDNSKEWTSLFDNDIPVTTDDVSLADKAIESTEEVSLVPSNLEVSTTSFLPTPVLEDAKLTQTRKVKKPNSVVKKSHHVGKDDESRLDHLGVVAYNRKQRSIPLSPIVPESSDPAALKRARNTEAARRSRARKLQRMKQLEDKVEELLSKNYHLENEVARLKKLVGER

B1: 9mer ATGACTCAT (dsDNA)
DNA 1: ATGACTCAT
DNA 2: ATGAGTCAT
Take B1: the binding result in the data set with 6xHis-mOrange-Gcn4p [1] is listed as “binds”.

B2: adjacent half-sites ATGACGTCAT (dsDNA)
DNA 1: ATGACGTCAT
DNA 2: ATGACGTCAT
On to B2, for which the binding result with 6xHis-mOrange-Gcn4p [2] is reported as “binds”.

B3: 11mer consensus TATGACTCATA (T,A flanks) (dsDNA)
DNA 1: TATGACTCATA
DNA 2: TATGAGTCATA
With B3, the binding result with 6xHis-mOrange-Gcn4p [3] is on record as “binds”.

B4: 11mer flanks G,A (dsDNA)
DNA 1: GATGACTCATA
DNA 2: TATGAGTCATC
Take B4: the binding result with 6xHis-mOrange-Gcn4p [4] was “binds”.

B5: 10mer ATGACTCATA (dsDNA)
DNA 1: ATGACTCATA
DNA 2: TATGAGTCAT
Turning to B5, the binding result in the data set with 6xHis-mOrange-Gcn4p [5] is “binds”.

B6: 11mer flanks C,A (dsDNA)
DNA 1: CATGACTCATA
DNA 2: TATGAGTCATG
Regarding B6, the binding result with 6xHis-mOrange-Gcn4p [4] was “binds”.

B7: consensus 7mer TGACTCA (dsDNA)
DNA 1: TGACTCA
DNA 2: TGAGTCA
With B7, the binding result with 6xHis-mOrange-Gcn4p [6] is “binds”.

B8: 10mer TATGACTCAT (dsDNA)
DNA 1: TATGACTCAT
DNA 2: ATGAGTCATA
Turning to B8, in the data set with 6xHis-mOrange-Gcn4p [5], the binding result is “binds”.

B9: 11mer flanks T,C (dsDNA)
DNA 1: TATGACTCATC
DNA 2: GATGAGTCATA
For B9, in the data set with 6xHis-mOrange-Gcn4p [4], the binding result is given as “binds”.
